Assay results taken from the DeepSol protein solubility set.

test: soluble on expression in E. coli; label from the status in PepcDB or PDB records

Sequence	soluble on expression in E. coli
MGSDKIHHHHHHMPGGGNGILYSNLAAVKEMKMNNLRVVIITGLSGSGKSTALRALEDIGFYCVDNMPVVLLPQFLEIQSDKSKDISQVAMVMDLREKSFIETYKGIFEQIKARGYKIEIVFLYATDDALLHRFSETRRVHPLSSVSIMEGIRLEREQLRALEEMADKVIDTTSCNVHQLKDIVQRHFLPSSTARRLFIHLISFGYRYGLPADADLVLDVRFLPNPYWVESLKSFNGHHQDVRRYVLSAEASSIFLQKLFDLMEFLIPLYEKEGKPRITIAVGCTGGKHRSVVMANELWSYFSGRDYPVNVNHRDVGKS	not soluble
MGSDKIHHHHHHMTHLDDMALFVEVVKAKGFRGAADALGMPNSTLSRRIGALEKAIGLRLLHRTTRKVEPTEAGLLYYERSKRIVEEARLVHEQLGEMLAQPSGLLRASFPEGFANIFLAPLVAEFARRYPGIRFEFDLSPRLADLVSDPVDVAIRMGEPANSNLIARQLARLPRHLYASPRYLDMLGEPQHPDELVQHECLRLRGSKSDIWTVQNRDETVDVAVGGRFLLNSVGMIQRLAALDMGIAILAESIVTDDVAQGRLRRVLPQWEATPVPVYALTETRLLPAKTQRFIDFLREHLSSI	not soluble
MGSDKIHHHHHHMTRVLKVDPLFPDEKVLKEAAELLRNGEVIIFPTETVYGIGADAYNEEACKKIFKLKERPADNPLIVHIHSFKQLEEIAEGYEPHLDFLKKFWPGPLTVIFRKKSEKIPPVVTADLPTVAVRMPAHPVALKLIELFGHPIAAPSANISGRPSATNVKHVIEDFMGKVKLIIDAGDTPFGLESTIVDLTKEKPVLLRPGPVEVERLKELFPELVVPDFVRKGNFKGRPLAPGMKYRHYAPLKPLILVEDLTKMEEVLKKYPDHVVICVEERKELYDDRIVVGSLKNPYSIAQNIFSALREAEKMGKEYIIVEGFEERGILFAVMNRLRKAATEIVR	not soluble
MGSDKIHHHHHHMSYRYNSVVDLIHKQISAGTLKVGDRLPSIRQLSLLTGFSTVTIHHAYELLESHGYCSARPRSGFYLVRTPLQQMGDFPHDGENSIEPISIVDFPHALLLSWQKRTLDAFGAPHPSADLFDCADVDRVMCRLLRRRKAIAANSVGGDPELRLQIAKRAAQRGVVTRPQDIVITGSAIQAFNLCLDALTDPGDVVLVESPSYFPALSSIKRRNLRVIEIYSHPVNGIDPDQLEHLVRNNEIRVAVLMASNHFPTGITYSEDRMKRIVSVAKKNDVTIIANSMLDDITYDSVTDNSLRKFDSGETVLQFSSFECGLSPQYGLGWIVAGKHSQKILAASYLGDYAPNDQRIQQAVAEYLSSRSHDRQLRRIRETLASRMERGLQLLADSLPTGCSVSRPTGGYMCWVRGPQKFTSMTAVLQLHKQNVSILPGSVFSAAARSFENFFALNLSFPWSAENEAKIGSIGDLIAQIVGR	not soluble
MGHHHHHHSHVTNLNLATGIINRSSASAPPTLRPIISPSGPTWSTQSDPQAPENHSSSPGSSFI	not soluble
VNQQQLQQLMDMGFTREHAMEALLNTSTMEQATEYLLTHP	soluble
MSTLAQLLDTKRTALAAELAGFIDRSVSQSSGISGVALKGAVAAAKKVRPDIVTKGAERLLPEVVEVLDPYWASFEASDSTHFGEFLEQHKSEVSDKILEVADRNAEKVDMPALKKAYGSLRGKAASFIEPNLPGLGQIMQNYMK	not soluble
MSLNTLNQDIAFKIFTMFYKVCYGKKKHTYTSFFEKFQICTYNDILLLCDEVAKLFKMENSLENVTLPCKVFGDVHGNLFDLLDFFNLYNWPMHNNKVFLGNLINRGNYSLEVICLLFSLKILFPKHIYLLRGNHEDRLFNYIYGFYKDIEIKMKTNMEYMGIINYQEQVISAHSYELFNRINDVFEFFPLCVLLDKNILCIHGGIGDSVMTISDYQHIRKPILIPQNVDRYSNNKSEHVKKIIIDTLWSDPINYNDELDLQLLKNSSTYDIIPSRRGNITFKFGKHRLNDFLKNNQLKLIIRGHECVQEGYKYSYKRKLLTLFSAKNYCNKYNNNASNAFIVRKNKNIIIFNQILKYQHNCEGHHHHHH	not soluble
MGSDKIHHHHHHVSDLEWVLAIPHEQAFKRMEEPWGGAKTSYLTGIKETLEANYGPIHFTRLYFGEEFCERALSTGKALEEAVAAAEERGWGFTYVTPYLTETGLTKVRLLLDILAQTKPEAEVVINDWGVLDWVTEHHPTFTPVLGRLMNKIIRDPRMPDSLRNSPDQTVMHKFRTCNLAGGEMKDLLDQYQVKRIELDYPPQGLDPNLPAWGYDISLSIPYGVIMTGRICLMQSWGLAAGEKFRTTGPCPRRCRLGWLELSDPSGRVKKDQDWQIMQKGNTVFYRQSKEFLAEILTEAEKTGVSRMIFQPEPI	not soluble
EHGPVTFVPDTPIESRARLSLPKQLVLRQSIVGAEVGVWTGETIPVRTCFGPLIGQQSHSMEVAEWTDKAVNHIWKIYHNGVLEFCIITTDENECNWMMFVRKARNREEQNLVAYPHDGKIFFCTSQDIPPENELLFYYSRDYAQQIGVPE	soluble
MYFIGCGYNAFPVGSEYADFPHMDDKHKDREIRKFRYIIHAEQNALTFRCQDIKPEEHSMIFVTKCPCDECVPLIKGAGIKQIYAGDVDVGKKKADISYMKFGELEGVRKFTWQLNPSEAYSLDPNEPERREKHLSIKRSH	not soluble
MGSDKIHHHHHHMIINNNIKELSIAHLQLIVCLIKHGNSCVVSDELGISQSSISYHLRRLRVIFADEMFIRTGKGLKPTERCIQIGHFAQDLINRVEEELIHANDFVPKQMKRELTLIAADTACGWFSTLFSDMQKTLPRVTLCARPWNLKSMEDLDSGAVDFGIHIIENSKKGIYDMDIAPCYRLCVVRDGHPLISKGEVTLKDLEQYPVLINDLGGWNNDGNSLMQRVLEKHGLKLNIAGRLGYINSIFTALHTSNAITYTSAASIPQSIPGLTLLRGPKEVNEVDCFYRLYISRMRYGSQETNYLIDFIYDSFKHFLTQQYNRIDIAAVINK	not soluble
MGSDKIHHHHHHMTNEQDPKQNHLLSVLPEAEWARISPHLVRIDMPLGQVIYESGDRLHHVYFPTTSIVSLLYVMEDGSSAEIAIVGNEGLIGIALFMGGETTPNRAIVQSAGEAYRLDARILKQEFHRAGPVQRLLLRYTQALITQMAQTAVCNRHHSIDQQLCRWLLLSLDRLPSNELRMTQELIANMLGVRRSGVTEAALKLQDAGLIRYSHGHIEVLDRPGLEKRVCECYNVVKQEFDRLLPDLKAL	not soluble
MGSDKIHHHHHHMSHRFFYRILGMRYLTSTNRKGYARMLFHRFSEKEWNFLKNDENNECFSCLMFYSRTGNAGRLEEEITDMKVDILSREYPPKVYGGAGVHAEELSKVLAERVDVTVRAFDGPRTAADIPAIPGTDPKGSLTVVGYDVPKELEDANGALKTFGVDLQIANDVDADIIHAHTWYACLAGYLAKMLHDTPLVITAHSLEPFRPWKREQLGGGYNLSSWAEKDAYEHADRVIAVSAGMREDILTAYPNLDPDKVVVVHNGITMSQFETPADDDPGWKVFERYNIDRSKPTLLFVGRITRQKGLPYLLQALHFVDPNIQVVLCAGAPDTPEIMEEVKTAFAKLDEERGNIIWIEEMLPKPELNALEHGCDAFICPSIYEPLGIVNLEAMACGLPVVASATGGIPEVVVDGETGYLVPVDQLHDGTGTPTNPDKFVHDMADAINRIMADPEKAKRMGQAGYERARDHFSWESIADKTVKVYEDVLAERK	not soluble
MAVKDNYCVIMGGGIGSRFWPFSRESHPKQFLDFFGTGRSLLQMTYDRFARFIPRENILVVTNELYVDKVREQLPEIEPDQILREPTRRNTAPCIAYASYHIYARNPKANIIVAPSDHLILREDEFVRAASEALEFVADHEHLVTLGIRPSRPETGYGYIQMAEEKTGDFIRVKTFTEKPNAEMASIFLASGEFLWNSGMFVWNVESILAAFRKHLPEVTSSLENGLAHFNTPEERRFIDQAFPYCPSISIDFGVMEKADNVLVMPVDFGWADLGTWGSLYELAQKDDAGNASLKTRTLFYEAERNIVTTDNPQKLVVVQGINDCIVAESGNVLLICRAEEEQRIKHFVADAALKYDKEYN	soluble
MSLSELIFYTNPMSRGRIARWMLEEVGIPYKTEILGFETSMKSPAYRLINPMAKVPAIKHGDTIVTEAAAICAYLADAFPGANLAPTPKARGLYYRWMFFAAGPLEMAASMKAMGFEVPKEKLRMAGCGSYADVMNTLERAVSENRFIAGDLFTAADVYVGAHVGWGLHFGTIEKRPAFTDYMAHLTDRPAFKRAAQLDEEAAKELQAAGEGHHHHHH	soluble
MTLLNLMIMQDYGISVCLTLTPYLQHELFSAMKSYFSKYILPVSLFTLPLSLSPSVSAFTLPEAWRAAQQHSADFQASHYQRDAVRARQQQAKAAFLPHVSANASYQRQPPSISSTRETQGWSVQVGQTLFDAAKFAQYRQSRFDTQAAEQRFDAAREELLLKVAESYFNVLLSRDTVAAHAAEKEAYAQQVRQAQALFNKGAATALDIHEAKAGYDNALAQEIAVLAEKQTYENQLNDYTDLDSKQIEAIDTANLLARYLPKLERYSLDEWQRIALSNNHEYRMQQLALQSSGQALRAAQNSRYPTVSAHVGYQNNLYTSSAQNNDYHYRGKGMSVGVQLNLPLYTGGELSGKIHEAEAQYGAAEAQLTATERHIKLAVRQAYTESGAARYQIMAQERVLESSRLKLKSTETGQQYGIRNRLEVIRARQEVAQAEQKLAQARYKFMLAYLRLVKESGLGLETVFAE	not soluble
MAGFEIQRVESKFFDLDDIIAKSDSTSCTFEIGDLNPDFFQEMLGVSKPTQNADGYGVDAPYWLLESVRSSFSIQLPKAYSVNMQNVLNADSKKLNLSGLQQHFYGNGMQLCRLMKGENPDGALSLARCLVSTLTQRLGEIVSTATHLQSKGEKFDSLETKVFLEGKRCKEDIDTWLRQDNKCSSKKRKRLSL	not soluble
VTDTDLITAGESTDGKPSDAAATDPPDLNADEPAGSLATMVLPELRALANRAGVKGTSGMRKNELIAAIEEIRRQANGAPAVDRSAQEHDKGDRPPSSEAPATQGEQTPTEQIDSQSQQVRPERRSATREAGPSGSGERAGTAADDTDNRQGGQQDAKTEERGTDAGGDQGGDQQASGGQQARGDEDGEARQGRRGRRFRDRRRRGERSGDGAEAELREDDVVQPVAGILDVLDNYAFVRTSGYLPGPHDVYVSMNMVRKNGMRRGDAVTGAVRVPKEGEQPNQRQKFNPLVRLDSINGGSVEDAKKRPEFGKLTPLYPNQRLRLETSTERLTTRVIDLIMPIGKGQRALIVSPPKAGKTTILQDIANAITRNNPECHLMVVLVDERPEEVTDMQRSVKGEVIASTFDRPPSDHTSVAELAIERAKRLVEQGKDVVVLLDSITRLGRAYNNASPASGRILSGGVDSTALYPPKRFLGAARNIEEGGSLTIIATAMVETGSTGDTVIFEEFKGTGNAELKLDRKIAERRVFPAVDVNPSGTRKDELLLSPDEFAIVHKLRRVLSGLDSHQAIDLLMSQLRKTKNNYEFLVQVSKTTPGSMDSD	not soluble
MLNSFKLSLQYILPKLWLTRLAGWGASKRAGWLTKLVIDLFVKYYKVDMKEAQKPDTASYRTFNEFFVRPLRDEVRPIDTDPNVLVMPADGVISQLGKIEEDKILQAKGHNYSLEALLAGNYLMADLFRNGTFVTTYLSPRDYHRVHMPCNGILREMIYVPGDLFSVNHLTAQNVPNLFARNERVICLFDTEFGPMAQILVGATIVGSIETVWAGTITPPREGIIKRWTWPAGENDGSVALLKGQEMGRFKLGSTVINLFAPGKVNLVEQLESLSVTKIGQPLAVSTETFVTPDAEPAPLPAEEIEAEHDASPLVDDKKDQVMGHHHHHHSH	not soluble
